Data from doi:10.1101/391136.

Key:
S100A1 [1] = experiment: other fluorescence titration
S100A1 [2] = experiment: ITC

S100A4 (from UniProt P26447 4-101) (natural protein)
Kd (S100A1 [1]): 10 µM | Kd (S100A1 [2]): 6.37 µM | stoichiometry N (S100A1 [2]): 1
